The record followed here is article PMC6800521 (RNA, 2019).

For this assay, the target named is MBP-Noc1/Noc2 complex (yeast, UniProt Q12176 1-1025; P39744 1-710). Nature of the assay: pull-down.
Sequence of MBP-Noc1/Noc2 complex (Q12176 whole entry, chain 1 of 2): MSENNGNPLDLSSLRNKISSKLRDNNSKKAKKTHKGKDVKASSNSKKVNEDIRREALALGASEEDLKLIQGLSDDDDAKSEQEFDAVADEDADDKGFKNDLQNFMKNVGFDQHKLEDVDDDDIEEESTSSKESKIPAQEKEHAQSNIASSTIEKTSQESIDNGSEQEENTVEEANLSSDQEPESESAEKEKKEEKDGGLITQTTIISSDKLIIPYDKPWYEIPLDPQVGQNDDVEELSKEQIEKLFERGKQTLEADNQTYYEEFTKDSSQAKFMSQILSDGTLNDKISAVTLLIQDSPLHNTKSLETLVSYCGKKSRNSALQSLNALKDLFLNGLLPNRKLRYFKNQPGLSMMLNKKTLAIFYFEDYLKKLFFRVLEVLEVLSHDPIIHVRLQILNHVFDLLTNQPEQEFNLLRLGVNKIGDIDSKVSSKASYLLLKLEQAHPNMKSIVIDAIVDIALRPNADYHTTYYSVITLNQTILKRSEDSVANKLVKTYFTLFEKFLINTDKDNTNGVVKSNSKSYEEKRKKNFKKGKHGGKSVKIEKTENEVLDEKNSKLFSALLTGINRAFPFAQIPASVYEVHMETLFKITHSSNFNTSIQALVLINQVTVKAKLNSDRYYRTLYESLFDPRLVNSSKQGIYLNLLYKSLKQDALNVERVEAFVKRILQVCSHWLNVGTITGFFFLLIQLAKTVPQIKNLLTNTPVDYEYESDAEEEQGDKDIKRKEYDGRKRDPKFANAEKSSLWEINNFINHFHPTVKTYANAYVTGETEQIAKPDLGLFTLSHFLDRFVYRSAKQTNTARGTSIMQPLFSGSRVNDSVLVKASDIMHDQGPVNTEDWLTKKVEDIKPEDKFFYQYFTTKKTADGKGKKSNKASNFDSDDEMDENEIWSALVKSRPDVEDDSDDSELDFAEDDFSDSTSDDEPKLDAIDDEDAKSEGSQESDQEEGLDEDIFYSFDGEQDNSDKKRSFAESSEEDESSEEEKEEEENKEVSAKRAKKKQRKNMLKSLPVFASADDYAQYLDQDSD
Sequence of MBP-Noc1/Noc2 complex (P39744 whole entry, chain 2 of 2): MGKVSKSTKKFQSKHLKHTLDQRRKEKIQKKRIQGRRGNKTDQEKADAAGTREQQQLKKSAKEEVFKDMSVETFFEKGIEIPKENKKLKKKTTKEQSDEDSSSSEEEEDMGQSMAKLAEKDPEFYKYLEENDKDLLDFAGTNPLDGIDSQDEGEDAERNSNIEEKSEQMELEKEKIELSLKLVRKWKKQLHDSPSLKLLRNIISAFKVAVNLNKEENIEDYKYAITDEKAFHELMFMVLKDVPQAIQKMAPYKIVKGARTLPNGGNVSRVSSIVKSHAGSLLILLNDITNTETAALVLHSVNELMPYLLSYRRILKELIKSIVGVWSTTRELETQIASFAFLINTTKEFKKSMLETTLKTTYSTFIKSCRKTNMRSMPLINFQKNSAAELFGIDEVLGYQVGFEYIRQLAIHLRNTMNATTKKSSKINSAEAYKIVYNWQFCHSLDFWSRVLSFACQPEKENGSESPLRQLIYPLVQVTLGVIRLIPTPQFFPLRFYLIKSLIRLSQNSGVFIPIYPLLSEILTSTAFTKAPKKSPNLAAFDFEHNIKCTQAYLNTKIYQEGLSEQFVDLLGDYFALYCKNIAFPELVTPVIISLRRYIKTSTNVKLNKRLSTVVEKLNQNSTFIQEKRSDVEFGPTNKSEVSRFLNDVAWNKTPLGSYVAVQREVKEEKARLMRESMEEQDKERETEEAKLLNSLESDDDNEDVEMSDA

B1: Rrp5 full length (natural protein, yeast, UniProt Q05022 1-1729, looked up)
chain: MVASTKRKRDEDFPLSREDSTKQPSTSSLVRNTEEVSFPRGGASALTPLELKQVANEAASDVLFGNESVKASEPASRPLKKKKTTKKSTSKDSEASSANSDEARAGLIEHVNFKTLKNGSSLLGQISAITKQDLCITFTDGISGYVNLTHISEEFTSILEDLDEDMDSDTDAADEKKSKVEDAEYESSDDEDEKLDKSNELPNLRRYFHIGQWLRCSVIKNTSLEPSTKKSKKKRIELTIEPSSVNIYADEDLVKSTSIQCAVKSIEDHGATLDVGLPGFTGFIAKKDFGNFEKLLPGAVFLGNITKKSDRSIVVNTDFSDKKNKITQISSIDAIIPGQIVDLLCESITKNGIAGKVFGLVSGVVNVSHLRTFSEEDLKHKFVIGSSIRCRIIACLENKSGDKVLILSNLPHILKLEDALRSTEGLDAFPIGYTFESCSIKGRDSEYLYLALDDDRLGKVHSSRVGEIENSENLSSRVLGYSPVDDIYQLSTDPKYLKLKYLRTNDIPIGELLPSCEITSVSSSGIELKIFNGQFKASVPPLHISDTRLVYPERKFKIGSKVKGRVISVNSRGNVHVTLKKSLVNIEDNELPLVSTYENAKNIKEKNEKTLATIQVFKPNGCIISFFGGLSGFLPNSEISEVFVKRPEEHLRLGQTVIVKLLDVDADRRRIIATCKVSNEQAAQQKDTIENIVPGRTIITVHVIEKTKDSVIVEIPDVGLRGVIYVGHLSDSRIEQNRAQLKKLRIGTELTGLVIDKDTRTRVFNMSLKSSLIKDAKKETLPLTYDDVKDLNKDVPMHAYIKSISDKGLFVAFNGKFIGLVLPSYAVDSRDIDISKAFYINQSVTVYLLRTDDKNQKFLLSLKAPKVKEEKKKVESNIEDPVDSSIKSWDDLSIGSIVKAKIKSVKKNQLNVILAANLHGRVDIAEVFDTYEEITDKKQPLSNYKKDDVIKVKIIGNHDVKSHKFLPITHKISKASVLELSMKPSELKSKEVHTKSLEEINIGQELTGFVNNSSGNHLWLTISPVLKARISLLDLADNDSNFSENIESVFPLGSALQVKVASIDREHGFVNAIGKSHVDINMSTIKVGDELPGRVLKIAEKYVLLDLGNKVTGISFITDALNDFSLTLKEAFEDKINNVIPTTVLSVDEQNKKIELSLRPATAKTRSIKSHEDLKQGEIVDGIVKNVNDKGIFVYLSRKVEAFVPVSKLSDSYLKEWKKFYKPMQYVLGKVVTCDEDSRISLTLRESEINGDLKVLKTYSDIKAGDVFEGTIKSVTDFGVFVKLDNTVNVTGLAHITEIADKKPEDLSALFGVGDRVKAIVLKTNPEKKQISLSLKASHFSKEAELASTTTTTTTVDQLEKEDEDEVMADAGFNDSDSESDIGDQNTEVADRKPETSSDGLSLSAGFDWTASILDQAQEEEESDQDQEDFTENKKHKHKRRKENVVQDKTIDINTRAPESVADFERLLIGNPNSSVVWMNYMAFQLQLSEIEKARELAERALKTINFREEAEKLNIWIAMLNLENTFGTEETLEEVFSRACQYMDSYTIHTKLLGIYEISEKFDKAAELFKATAKKFGGEKVSIWVSWGDFLISHNEEQEARTILGNALKALPKRNHIEVVRKFAQLEFAKGDPERGRSLFEGLVADAPKRIDLWNVYVDQEVKAKDKKKVEDLFERIITKKITRKQAKFFFNKWLQFEESEGDEKTIEYVKAKATEYVASHESQKADE
As to B1, the binding result was “binds”.
